Source: IntAct's records for PubMed 15678106

B1: Tumor protein p73 (Homo sapiens), O15350-1 (parent)
chain: MAQSTATSPDGGTTFEHLWSSLEPDSTYFDLPQSSRGNNEVVGGTDSSMDVFHLEGMTTSVMAQFNLLSSTMDQMSSRAASASPYTPEHAASVPTHSPYAQPSSTFDTMSPAPVIPSNTDYPGPHHFEVTFQQSSTAKSATWTYSPLLKKLYCQIAKTCPIQIKVSTPPPPGTAIRAMPVYKKAEHVTDVVKRCPNHELGRDFNEGQSAPASHLIRVEGNNLSQYVDDPVTGRQSVVVPYEPPQVGTEFTTILYNFMCNSSCVGGMNRRPILIIITLEMRDGQVLGRRSFEGRICACPGRDRKADEDHYREQQALNESSAKNGAASKRAFKQSPPAVPALGAGVKKRRHGDEDTYYLQVRGRENFEILMKLKESLELMELVPQPLVDSYRQQQQLLQRPSHLQPPSYGPVLSPMNKVHGGMNKLPSVNQLVGQPPPHSSAATPNLGPVGPGMLNNHGHAVPANGEMSSSHSAQSMVSGSHCTPPPPYHADPSLVSFLTGLGCPNCIEYFTSQGLQSIYHLQNLTIEDLGALKIPEQYRMTIWRGLQDLKQGHDYSTAQQLLRSSNAATISIGGSGELQRQRVMEAVHFRVRHTITIPNRGGPGGGPDEWADFGFDLPDCKARKQPIKEEFTEAEIH

Variants of: B1
Conditions: with itch_human ITCH

Row | effect of a mutation on the interaction | Variant
1 | disrupting interaction | Y487F
